The target of assay [1] is wild-type green fluorescent protein (GFP) derived from the jellyfish Aequorea victoria (Aequorea victoria) [GFP: P42212]. The assay is described as follows: cell-based or functional assay.
For assay [2], the target named is T1, catalytic subunit of the cAMP dependent protein kinase (Bos taurus, UniProt P00517).
T1 construct: purchased Promega
The assay is described as follows: In vitro GFP phosphorylation assay. In kind it is biochemical. To be noted: 0.5 μg GFP, 10 casein units kinase, 0.2 mM ATP, 5 minutes at 37° C., excitation 395 nm (FIG. 3). The protocol: For in vitro phosphorylation of GFP, 0.5 μg wild-type GFP (purified as described above) in 40 mM Tris, pH 7.4, 20 mM MgOAc and 0.2 mM ATP (all from Sigma, St. Louis, Mo., USA) was incubated for 1-60 minutes at 37° C. with 0-20 casein units of the catalytic subunit of the cAMP dependent protein kinase (Promega, Madison, Wis. USA) and 0-200 μM cAMP dependent protein kinase inhibitor. Emission (excitation wavelength 395 nm or 470 nm) and excitation (emission wavelength 508 nm) spectra were acquired for all samples using the LS50B Luminescence Spectrometer and the FL data Manager software package (Perkin Elmer). The spectra were subsequently compared by using the Graph Builder software package (Perkin Elmer).
The control (w/o PKA) was incubated 5 minutes at 37° C. without the catalytic subunit of the cAMP dependent protein kinase. The excitation wavelength was 395 nm. RFI in the figure means relative fluorescence intensity.

In the case of “catalytic subunit of the cAMP dependent protein kinase (Promega) (enzyme)”, the fluorescence intensity of wild-type GFP (emission spectra, excitation 395 nm) after in vitro phosphorylation in assay [1] turned out to be 2 fold.

With “wild-type GFP: wild-type green fluorescent protein derived from the jellyfish Aequorea victoria, SEQ ID NO: 32, purified from E. coli”, the “increase of fluorescence intensity when incubated with the catalytic subunit of the cAMP dependent protein kinase” value in assay [2] is on record as “approximately two-fold”.

The values above are taken from patent US6566083B1, “Method of detecting biologically active substances” (Novo Nordisk A/S, priority 1995, dated 2003).
